Reference: patent publication US20120213771A1 (CELLDEX THERAPEUTICS, published 2012)
Substitutions are numbered along the chain they refer to. Where “and” joins values, the source holds several entries; their conditions need not be identical. Identical values can stand only once.

T1: recombinant purified human CD27 (human, UniProt P26842 20-191)
T1 construct: also called soluble or recombinant human CD27
T1 sequence: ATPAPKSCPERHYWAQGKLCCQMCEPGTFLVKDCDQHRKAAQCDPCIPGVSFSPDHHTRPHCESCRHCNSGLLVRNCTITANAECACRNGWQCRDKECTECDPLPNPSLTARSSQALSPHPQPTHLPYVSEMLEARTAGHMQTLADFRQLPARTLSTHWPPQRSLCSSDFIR

B1: 2G9-1D11 (antibody, V domains shown)
VH: QVQLVESGGGVVQPGRSLRLSCAASGFTLSSHDIHWVRQAPGKGLEWVAVIWNDGSNKYYADSVKGRFTISRDNSTNSLFLQMNSLRAEDTAVYYCVRGTADLEHWDQGTLVTVSS
VL: DIQMTQSPSSLSASVGDRVTITCRASQGISSWLAWYQQKPEKAPKSLIYAASSLQSGVPSRFSGSGSGTDFTLTISSLQPEDFATYYCQQYNSYPLTFGGGTKVEIK
notes: Human IgG from hybridoma
B2: 3A10-G10 (antibody, V domains shown)
VH: QVQLVESGGGVVQPGRSLRLSCAASGFTFSHYGMHWVRQAPGKGPEWVAIIWYDGSNKYYADSVKGRFTISRDNSKNTLDLQMNSLRAEDTAVYYCARDGWTTMVRGLNVFDIWGQGTMVTVSS
VL: B1 VL with G28D, L96P, G100Q, K103R, V104L
notes: Human IgG from hybridoma; also called 3A10-1G10
B3: 2C2-1A10 (antibody, V domains shown)
VH: B1 VH with L29F, H32Y, R98G
VL: B1 VL
notes: Human IgG from hybridoma
B4: 3H8-1B11 (antibody, V domains shown)
VH: EVQLVESGGGLVQPGGSLRLSCAASGFTFSSYWMAWVRQAPGKGLEWLGNIKQDGSEKYYVDSVKGRFTISRDNAKNSLYLQMNSLRAEDTAVYYCVRELGMDWYFDLWGRGTLVTVSS
VL: EIVLTQSPATLSLSPGERATLSCRASQSVDSYLAWYQQKPGQAPRLLIYDASNRATGIPARFSGSGSGTDFTLTISNLEPEDFAVYYCQQRSNWPPTFGQGTKVEIK
notes: Human IgG from hybridoma
B5: 1G5-1B9 (antibody, V domains shown)
VH: QVQLVESGGGVVQPGRSLRLSCAASGFSFSSYGMHWVRQAPGKGLEWVALLWYDGSHKDFADSVKGRFTISRDNSKNTLDLQMNSLRAEDTAVYYCAREGLAVPGHWYFDLWGRGTLVTVSS
VL: AIQLTQSPSSLSASVGDRVTITCRASQGISSALAWYQQKPGKAPKLLIYDASSLESGVPSRFSGSGSGTDFTLTISSLQPEDFATYYCQQFNTYPRTFGQGTKVEIK
notes: Human IgG from hybridoma
B6: 1F5-1H5 (antibody, V domains shown)
VH: QVQLVESGGGVVQPGRSLRLSCAASGFTFSSYDMHWVRQAPGKGLEWVAVIWYDGSNKYYADSVKGRFTISRDNSKNTLYLQMNSLRAEDTAVYYCARGSGNWGFFDYWGQGTLVTVSS
VL: B1 VL with S31R, S93T, L96R, G100Q
notes: Fully human IgG from HuMAb mouse hybridoma, protein A purified; Human IgG1 is used as its isotype control; also called mAb 1F5; anti-CD27 mAb 1F5
B7: 1H8-B4 (antibody, V domains shown)
VH: QVQLVESGGGVVQPGRSLRLSCAASGFTFNIYDMHWVRQAPGKGLEWVAVIWYDGSNQYYADSVKGRFTISRDNSKNTLYLQMNILRAEDTAVYYCARGTHWGYFDYWGQGTLVTVSS
VL: B1 VL with S53N, L96R, G100Q
notes: Human IgG from hybridoma
B8: 3H12-1E12 (antibody, V domains shown)
VH: B6 VH with A24T, R87G, A88D
VL: B1 VL with S31R, S93T, L96R, G100Q
notes: Human IgG from hybridoma; Two subclones (3H12-1C8 and 3H12-1E12) are both called 3H12; also called 3H12-1C8

molecular target: T1, recombinant purified human CD27; test: ELISA on CD27-coated plates, half-max binding (C value of 4-parameter fit)
Description: Microtiter plates were coated with soluble or recombinant human or macaque CD27 in PBS, and then blocked with 5% bovine serum albumin in PBS. Protein A purified human mAbs and an isotype control were added at […] concentrations and incubated at 37° C. The plates were washed with PBS/Tween and then incubated with a goat-anti-human IgG Fc-specific polyclonal reagent conjugated to alkaline phosphatase at 37° C. After washing, the plates were developed with pNPP substrate (1 mg/ml), and analyzed at OD 405-650 using a microtiter plate reader.

| EC50 | Binder |
| --- | --- |
| 0.43 nM and 0.064 µg/mL | B1 |
| 0.63 nM and 0.094 µg/mL | B2 |
| 0.3 nM and 0.045 µg/mL | B3 |
| 0.46 nM and 0.069 µg/mL | B4 |
| 0.49 nM and 0.074 µg/mL | B5 |
| 0.39 nM and 0.059 µg/mL | B6 |
| 0.43 nM and 0.064 µg/mL | B7 |
| 0.57 nM and 0.085 µg/mL | B8 |

molecular target: T2, purified recombinant monkey (macaque) CD27 (macaque); test: ELISA on plate-bound monkey CD27, half-max binding
T2 construct: The paragraph speaks of cynomolgus macaques as the model; the protein itself is only called macaque / monkey CD27; Captured with anti-Flag antibody in one format; also called monkey CD27

| EC50 [µg/mL] | Binder |
| --- | --- |
| 0.069 | B1 |
| 0.034 | B3 |
| 0.065 | B4 |
| 0.065 | B5 |
| 0.12 | B6 |
| 0.105 | B7 |
| 0.123 | B8 |
